Reference: article PMC12503259, “Establishment of an in vivo analytical method for detecting total anti-UFH activity and pharmacokinetic study in PS and R15 in rats” (PLOS One, 2025)
Like-named read-outs stand apart in the source and are kept apart here.

Columns and labels:
[1] = Pharmacokinetic study in Wistar rats, total anti-heparin activity in plasma (fixed UFH added, residual UFH by anti-FXa kit); type: in vivo
Description: Processing of Plasma Samples: 100 μL of the unknown plasma sample was added to 500 μL of 75% methanol (methanol: water = 75:25, v/v) and vortex-mixed for 5 seconds. The mixture was then centrifuged at 12,000 r/min for 10 minutes at 25°C. The supernatant (500 μL) was collected and dried under nitrogen at 60°C. Subsequently, UFH (0.14 U·mL^-1 for PS and 0.15 U·mL^-1 for R15; 120 μL) was added, and the mixture was vigorously shaken at room temperature for 10 minutes. The residual UFH content was measured using the Heparin Anti-FXa assay kit.
The detailed procedure is as follows: Accurately pipette 40 μL of the sample into a 96-well plate. Place the plate in a microplate shaker. Using a multichannel pipette, add 40 μL of reagent R1 and mix by shaking. Incubate at 37 °C for exactly 3 minutes (start timing upon addition of R1; at 50 seconds, begin shaking with the microplate shaker for 1 minute, then place the plate in the incubator). Remove the 96-well plate from the incubator and place it on the open microplate shaker. Using a multichannel pipette, add 40 μL of reagent R2 to each well and incubate at 37 °C for 6 minutes (after adding R2, at 3 minutes and 50 seconds, open the microplate shaker and shake for 4 minutes, then return the plate to the incubator). Remove the 96-well plate from the incubator and place it on the open microplate shaker. Quickly add 40 μL of reagent R3 using a multichannel pipette and shake until 9 minutes and 10 seconds. At 9 minutes and 30 seconds, add 80 μL of 20% acetic acid to each well to terminate the reaction. Measure the absorbance at 405 nm using a microplate reader (Multiskan FC, Thermo Fisher US).
Eight Wistar rats (approximately 250 g; equally divided by sex and acclimatized for 1 week in the animal facility) were used for profiling pharmacokinetics of PS. Each rat was cannulated in carotid artery to collect blood the day before the experiment. PS was injected through the tail vein and blood samples were collected at 0 min, 1 min, 3 min, 5 min, 7 min, 9 min, 11 min, 15 min, 20 min, 30 min, 60 min and 120 min in a tube containing 4% sodium citrate. Plasma was achieved by centrifugation at 8000 r/min for 10 min, and stored in the refrigerator at −80°C. […]
During the analysis of actual samples, a standard curve and a series of calibration standards were established for each analytical batch to determine the concentration of PS and R15 in plasma. The concentrations were plotted on the X-axis, and the data were fitted using Equation (3).
Weighted least squares regression was used for the calculations. The Optical Density (OD) values of the unknown biological samples were substituted into the equation to determine the concentration of PS and R15, respectively.
Pharmacokinetic parameters of PS were calculated by WinNonlin 6.4, and all data were processed by Microsoft Excel 2013 and GraphPad Prism 8.3.

[2] = test system: activated partial thromboplastin time (APTT); settings: in vitro, supratherapeutic amounts; cited from earlier work
[3] = in vivo; cited from earlier work
Description: In clinical practice, PS is typically administered at 1.2 times the anti-heparin activity of circulating UFH to achieve complete neutralization [40, 41].

[4] = PS 300 U/kg iv, rat 1# (male), single animal
[5] = PS 300 U/kg iv, rat 2# (male), single animal
[6] = PS 300 U/kg iv, rat 3# (male), single animal, not included in mean
[7] = PS 300 U/kg iv, rat 6# (male), single animal
[8] = PS 300 U/kg iv, rat 11# (female), single animal
[9] = PS 300 U/kg iv, rat 12# (female), single animal
[10] = PS 300 U/kg iv, rat 13# (female), single animal
[11] = PS 300 U/kg iv, rat 14# (female), single animal, not included in mean
[12] = PS 300 U·kg^-1 single iv tail vein, Wistar rats, Total (male and female), mean ± SD, n = 6, rats 3# and 14# excluded
[13] = PS 300 U·kg^-1 single iv tail vein, Wistar rats, female, mean ± SD, rat 14# excluded
[14] = PS 300 U·kg^-1 single iv tail vein, Wistar rats, male, mean ± SD, rat 3# excluded

Which plasma concentration ([1]; PS 300 U/kg iv, 1 min, Mean±SD) does the source give for Protamine sulfate [PS] here?
The plasma concentration was 12.19 ± 1.89 µg/mL.

What about the plasma concentration ([1]; PS 300 U/kg iv, 3 min, Mean±SD) of the same substance?
Its plasma concentration is 3.41 ± 1.62 µg/mL.

What about the plasma concentration ([1]; PS 300 U/kg iv, 5 min, Mean±SD) of the same substance?
Its plasma concentration is 1.76 ± 0.44 µg/mL.

And the plasma concentration ([1]; PS 300 U/kg iv, 7 min, Mean±SD)?
Its plasma concentration is 0.91 ± 0.29 µg/mL.

What about the plasma concentration ([1]; PS 300 U/kg iv, 9 min, Mean±SD) of the same substance?
Its plasma concentration is 0.82 ± 0.26 µg/mL.

And the plasma concentration ([1]; PS 300 U/kg iv, 11 min, Mean±SD)?
Its plasma concentration is 0.67 ± 0.21 µg/mL.

And the plasma concentration ([1]; PS 300 U/kg iv, 15 min, Mean±SD)?
The plasma concentration was 0.55 ± 0.09 µg/mL.

What about the plasma concentration ([1]; PS 300 U/kg iv, 20 min, Mean±SD column (one rat)) of the same substance?
The plasma concentration was 0.43 µg/mL.

And the plasma concentration ([1]; PS 300 U/kg iv, 20 min, rat 6#)?
The plasma concentration was 0.43 µg/mL.

What about the AUC [1, 4] of the same substance?
The AUC was 35.86 min･µg･mL^-1.

What about the CL [1, 4] of the same substance?
Its CL is 53.74 mL･min^-1･kg^-1.

What about the Cmax [1, 4] of the same substance?
The Cmax was 12.10 µg･mL^-1.

What about the MRT [1, 4] of the same substance?
Its MRT is 2.51 min.

And the T1/2 [1, 4]?
The T1/2 was 1.72 min.

And the Vd [1, 4]?
Its Vd is 134 mL･kg^-1.

And the AUC [1, 5]?
Its AUC is 42.97 min･µg･mL^-1.

What about the CL [1, 5] of the same substance?
Its CL is 41.70 mL･min^-1･kg^-1.

And the Cmax [1, 5]?
The Cmax was 15.14 µg･mL^-1.

And the MRT [1, 5]?
Its MRT is 3.20 min.

And the T1/2 [1, 5]?
Its T1/2 is 7.06 min.

And the Vd [1, 5]?
Its Vd is 425 mL･kg^-1.

And the AUC [1, 6]?
The AUC was 17.83 min･µg･mL^-1.

What about the Cmax [1, 6] of the same substance?
Its Cmax is 11.17 µg･mL^-1.

And the MRT [1, 6]?
Its MRT is 1.12 min.

What about the AUC [1, 7] of the same substance?
The AUC was 45.62 min･µg･mL^-1.

And the CL [1, 7]?
The CL was 39.21 mL･min^-1･kg^-1.

What about the Cmax [1, 7] of the same substance?
The Cmax was 14.12 µg･mL^-1.

What about the MRT [1, 7] of the same substance?
The MRT was 4.40 min.

What about the T1/2 [1, 7] of the same substance?
The T1/2 was 8.65 min.

What about the Vd [1, 7] of the same substance?
Its Vd is 489 mL･kg^-1.

And the AUC [1, 8]?
Its AUC is 29.16 min･µg･mL^-1.

What about the CL [1, 8] of the same substance?
Its CL is 66.07 mL･min^-1･kg^-1.

And the Cmax [1, 8]?
Its Cmax is 12.55 µg･mL^-1.

And the MRT [1, 8]?
Its MRT is 2.12 min.

And the T1/2 [1, 8]?
Its T1/2 is 1.64 min.

And the Vd [1, 8]?
Its Vd is 156 mL･kg^-1.

What about the AUC [1, 9] of the same substance?
Its AUC is 33.06 min･µg･mL^-1.

And the CL [1, 9]?
Its CL is 55.19 mL･min^-1･kg^-1.

What about the Cmax [1, 9] of the same substance?
Its Cmax is 12.70 µg･mL^-1.

What about the MRT [1, 9] of the same substance?
The MRT was 2.49 min.

And the T1/2 [1, 9]?
Its T1/2 is 2.18 min.

And the Vd [1, 9]?
Its Vd is 173 mL･kg^-1.

And the AUC [1, 10]?
The AUC was 28.68 min･µg･mL^-1.

What about the CL [1, 10] of the same substance?
The CL was 66.01 mL･min^-1･kg^-1.

And the Cmax [1, 10]?
Its Cmax is 9.40 µg･mL^-1.

What about the MRT [1, 10] of the same substance?
Its MRT is 2.97 min.

And the T1/2 [1, 10]?
Its T1/2 is 2.41 min.

And the Vd [1, 10]?
The Vd was 229 mL･kg^-1.

And the AUC [1, 11]?
The AUC was 18.80 min･µg･mL^-1.

What about the CL [1, 11] of the same substance?
The CL was 97.21 mL･min^-1･kg^-1.

What about the Cmax [1, 11] of the same substance?
Its Cmax is 10.34 µg･mL^-1.

What about the MRT [1, 11] of the same substance?
Its MRT is 1.46 min.

And the T1/2 [1, 11]?
The T1/2 was 1.20 min.

What about the Vd [1, 11] of the same substance?
Its Vd is 168 mL･kg^-1.

And the Cmax ([1]; PS 300 U·kg^-1 single iv tail vein, Wistar rats, Total (male and female), at 1 min, mean ± SD, n = 6, rats 3# and 14# excluded)?
Its Cmax is 12.67 ± 1.96 µg/mL.

And the AUC [1, 12]?
Its AUC is 35.89 ± 7.07 µg·min/mL.

What about the CL [1, 12] of the same substance?
Its CL is 53.65 ± 11.49 mL/min/kg.

And the MRT [1, 12]?
The MRT was 2.95 ± 0.81 min.

And the T1/2 [1, 12]?
The T1/2 was 3.94 ± 3.08 min.

And the Vd [1, 12]?
Its Vd is 268 ± 151 mL/kg.

What about the AUC [1, 13] of the same substance?
The AUC was 30.30 ± 2.40 µg·min/mL.

What about the CL [1, 13] of the same substance?
The CL was 62.42 ± 6.26 mL/min/kg.

And the Cmax [1, 13]?
The Cmax was 11.55 ± 1.86 µg/mL.

What about the MRT [1, 13] of the same substance?
Its MRT is 2.53 ± 0.43 min.

What about the T1/2 [1, 13] of the same substance?
Its T1/2 is 2.08 ± 0.40 min.

And the Vd [1, 13]?
Its Vd is 186 ± 38 mL/kg.

And the AUC [1, 14]?
The AUC was 41.48 ± 5.05 µg·min/mL.

And the CL [1, 14]?
The CL was 44.88 ± 7.77 mL/min/kg.

What about the Cmax [1, 14] of the same substance?
Its Cmax is 13.79 ± 1.55 µg/mL.

And the MRT [1, 14]?
The MRT was 3.37 ± 0.96 min.

And the T1/2 [1, 14]?
Its T1/2 is 5.81 ± 3.63 min.

What about the Vd [1, 14] of the same substance?
The Vd was 349 ± 189 mL/kg.

What about the “effect of excess on APTT” value [2] of the same substance?
Its value is “persistently prolonged APTT”.

And the T1/2 [3]?
Its T1/2 is 7.4 min.
